Measured values as given in patent US20240287208A1 (CONCEPT TO MEDICINE BIOTECH, published 2024).

T1: human OX40 protein (human, UniProt P43489 29-216, limits assumed)
T1 sequence (looked up): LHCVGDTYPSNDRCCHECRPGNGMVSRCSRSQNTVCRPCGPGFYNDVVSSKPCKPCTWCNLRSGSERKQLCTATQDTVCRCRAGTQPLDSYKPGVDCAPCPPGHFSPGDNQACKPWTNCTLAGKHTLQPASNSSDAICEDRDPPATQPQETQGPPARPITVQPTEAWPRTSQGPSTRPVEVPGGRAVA


Experiments:
[1] = target: T2, cynomolgus CD40-His protein (cynomolgus, UniProt G7PG38 21-193); test: ELISA, plate-coated cynomolgus CD40-His
T2 construct: His-tagged recombinant protein; also called cyno CD40 antigen
Description: (§1) To evaluate the binding activity of clones 42p155, 2p834, 2p931, 42p655, 2p1294, 2p957, 42p495, 3p78, 2p415, 2p442, 2p551, 2p80 and 2p1130, the chimeric monospecific antibody (mAb) from these clones were subjected to ELISA test, along with selicrelumab, the clinical benchmark anti-CD40 agonist antibodies.
The binding affinity of these clones to cynomolgus CD40 was also tested. Microtiter plates were coated with cynomolgus CD40-His protein at 1.0 μg/ml in PBS, 100 µl/well at 4° C. overnight, then blocked with 150 µl/well of 1% BSA. Ten-fold dilutions of 42p155, 2p834, 2p931, 42p655, 2p1294, 2p957, 42p495, 3p78, 2p415, 2p442, 2p551, 2p80 and 2p1130 antibodies starting from 100 nM were added to each well and incubated for 1 hour at RT. The plates were washed with PBS/Tween and then incubated with Anti-Human IgG (H&L) (GOAT) Antibody Peroxidase Conjugated for 30 mins at RT. After washing, the plates were developed with TMB substrate and analyzed by spectrophotometer at OD 450 nm. As shown in FIG. 1B and Table 2, all these clones bound to cynomolgus CD40 at high activity, showing good cross-reactivity between human and cynomolgus CD40 proteins.

[2] = target: T3, human CD40-His protein (human, UniProt P25942 21-193); test: ELISA, plate-coated human CD40-His
T3 construct: His-tagged recombinant protein; also called human CD40-his tag; recombinant CD40 protein
Description: as §1
(§2) Briefly, microtiter plates were coated with human CD40-His protein at 1.0 μg/ml in PBS, 100 μl/well at 4° C. overnight, then blocked with 150 µl/well of 1% BSA. Ten-fold dilutions of 42p155, 2p834, 2p931, 42p655, 2p1294, 2p957, 42p495, 3p78, 2p415, 2p442, 2p551, 2p80 and 2p1130 antibodies starting from 100 nM were added to each well and incubated for 1 hour at RT. The plates were washed with PBS/Tween and then incubated with Anti-Human IgG (H&L) (GOAT) Antibody Peroxidase Conjugated for 30 mins at RT. After washing, the plates were developed with TMB substrate and analyzed by spectrophotometer at OD 450 nm.

[3] = target: T4, human 4-1BB protein (human, UniProt Q07011 24-186); test: ELISA, plate-coated protein
T4 construct: also called 4-IBB
Description: (§3) To evaluate the cross reactivity of chimeric anti-CD40 antibodies to other family members of TNF receptors, the ELISA binding towards human 4-1BB and human OX40 were performed.
as §2, with “4-1BB protein or human OX40” for “CD40-His”, “1” for “1.0”, “μl/well” for “µl/well”

[4] = target: T1, human OX40 protein; test: ELISA, plate-coated protein
Description: as §3
as §2, with “4-1BB protein or human OX40” for “CD40-His”, “1” for “1.0”, “μl/well” for “µl/well”

[5] = target: T5, human CD40 on the cell surface (human, UniProt P25942 21-277); test: cell-based or functional assay
[6] = target: T3, human CD40-His protein; test: BLI Octet RED96e, antibody captured on AHC, CD40-His as analyte
Description: (§4) The binding of the humanized 42p155 and 2p442 antibodies to recombinant human CD40 protein (human CD40-his tag) was tested by Biacore and Octet, respectively, using a capture method.
For humanized 2p442 monoclonal antibodies, 2p442z8, 2p442z9 and 2p442z10 were captured using AHC biosensor. A serial dilution of human CD40-his tag protein was incubated with captured antibody for 5 mins. The antigen was allowed to dissociate for 10 min. All the experiments were carried out on an Octet RED96e. Data analysis was carried out using Octet Analysis Studio 12.2 software.

[7] = target: T5, human CD40 on the cell surface; test: FACS, Jurkat cells overexpressing human CD40, PE anti-human IgG, MFI
Description: (§5) To evaluate the binding affinity of humanized 2p442 monoclonal antibodies to cell surface CD40, 2p442z8, 2p442z9, 2p442z10 and parental 2p442 were tested in Jurkat cell lines that overexpressed CD40 by FACS. A total number of 1×10⁵ Jurkat-CD40 cells in each well were incubated with 3-fold serially diluted antibodies starting from 100 nM for 30 minutes at 4° C. in FACS buffer. After wash by FACS buffer, PE conjugated-anti-human IgG antibody was added to each well and incubated at 4° C. for 30 minutes. After wash, MFI of PE was evaluated by MACSQuant Analyzer 16.

[8] = target: T3, human CD40-His protein; test: SPR Biacore T200, antibody captured on Protein A, CD40-His as analyte
Description: as §4
For humanized 42p155 monoclonal antibodies, 42p155z2 and 42p155z3 were captured using Protein A chip. A serial dilution of human CD40-his tag protein was injected over captured antibody for 3 mins at a flow rate of 10 μl/min. The antigen was allowed to dissociate for 6 min. All the experiments were carried out on a Biacore T200. Data analysis was carried out using Biacore T200 evaluation software.

[9] = target: T5, human CD40 on the cell surface; test: FACS, Jurkat cells overexpressing human CD40, PE anti-human IgG, MFI; remark: listed apart in the source
Description: as §5, with “5T4-CD40 bispecific” for “humanized 2p442 monoclonal”, “bispecific antibodies with formats of b 1 (42p155z2), b12 (42p155z2), b13 (42p155z2), b16 (42p155z2), b17 (42p155z2)” for “2p442z8, 2p442z9, 2p442z10”, “b18 (2p1130)” for “parental 2p442”, “5-fold” for “3-fold”

T5 sequence (P25942 21-277): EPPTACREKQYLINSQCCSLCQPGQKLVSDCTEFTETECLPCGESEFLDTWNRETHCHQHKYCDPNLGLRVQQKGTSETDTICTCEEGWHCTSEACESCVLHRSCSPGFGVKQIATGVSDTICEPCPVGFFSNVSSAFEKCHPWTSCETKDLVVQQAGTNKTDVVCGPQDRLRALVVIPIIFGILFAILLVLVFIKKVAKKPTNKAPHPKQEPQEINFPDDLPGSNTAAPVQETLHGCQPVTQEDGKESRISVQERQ
T3 sequence (P25942 21-193 limits assumed): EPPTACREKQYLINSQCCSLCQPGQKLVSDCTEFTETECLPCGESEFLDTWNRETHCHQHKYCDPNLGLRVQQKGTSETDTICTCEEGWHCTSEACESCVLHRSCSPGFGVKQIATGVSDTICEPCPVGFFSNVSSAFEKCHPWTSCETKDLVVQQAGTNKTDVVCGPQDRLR

Row | Kd [6] | koff [6] | kon [6] | EC50 (read off the curve) [7] | Binder | further results
1 | 50.4 nM | 0.0269 s⁻¹ | 534000 M⁻¹ s⁻¹ | ~0.2 nM | 2p442 chimeric monospecific antibody (antibody, V domains shown, Chimeric monospecific antibody; also called parental 2p442) VH: QVQLVESGGGLVQPGGSLRLSCVASGFTLDYFAIGWFRQAPGKEREGVSCISGGGSTRYADSVKGRFTISRDNAKNTVYLQMNSLTPEDTAVYYCAAARLLSRNCVPRDSGSWGQGTQVTVSS | EC50 [1]: 0.3 nM; EC50 [2]: 1.95 nM; binding result [3]: no binding (tested: 100 nM (highest concentration)); binding result [4]: no binding (tested: 100 nM (highest concentration)); CD40 NF-κB luciferase reporter (Jurkat), RLU [5]: > 10 nM
2 | 56.7 nM | 0.0119 s⁻¹ | 210000 M⁻¹ s⁻¹ | ~0.2 nM | 2p442z8 humanized monoclonal antibody (antibody, V domains shown, Humanized monoclonal antibody captured on AHC biosensor; also called VHHz8) VH: QVQLVESGGGLVKPGGSLRLSCAASGFTFDYFAIGWFRQAPGKGREGVSCISGGGSTRYADSVKGRFTISRDNAKNSVYLQMNSLRPEDTAVYYCARARLLSRNCVPRDSGSWGQGTLVTVSS | 
3 | 69.6 nM | 0.0337 s⁻¹ | 485000 M⁻¹ s⁻¹ | ~0.2 nM | 2p442z10 humanized monoclonal antibody (antibody, V domains shown, Humanized monoclonal antibody captured on AHC biosensor; also called VHHz10) VH: QVQLVESGGGLVKPGGSLRLSCAASGFTFDYFAIGWFRQAPGKELEGVSCISGGGSTRYADSVKGRFTISRDNAKNSVYLQMNSLRPEDTAVYYCAAARLLSRNCVPRDSGSWGQGTLVTVSS | 
4 | 34.8 nM | 0.0125 s⁻¹ | 357000 M⁻¹ s⁻¹ | ~0.2 nM | 2p442z9 humanized monoclonal antibody (antibody, V domains shown, Humanized monoclonal antibody captured on AHC biosensor; also called VHHz9) VH: QVQLVESGGGLVKPGGSLRLSCAASGFTFDYFAIGWFRQAPGKELEGVSCISGGGSTRYADSVKGRFTISRDNAKNSVYLQMNSLRPEDTAVYYCARARLLSRNCVPRDSGSWGQGTLVTVSS | 
5 |  |  |  |  | 42p155z2 humanized monoclonal antibody (antibody, V domains shown, Humanized monoclonal antibody captured on Protein A; also called VHHz2) VH: EVQLVESGGGLVQPGGSLRLSCAASGFAFRSYTMSWVRQAPGKGLEWVSTITHNGAITTYAESAQGRFTISRDNSKNTLYLQMNSLRAEDTAVYYCAQGGGSNYYRESWGQGTQVTVSS | Kd [8]: 186 nM; koff [8]: 0.0368 s⁻¹; kon [8]: 198000 M⁻¹ s⁻¹
6 |  |  |  |  | 42p155z3 humanized monoclonal antibody (antibody, V domains shown, Humanized monoclonal antibody captured on Protein A; also called VHHz3) VH: EVQLVESGGGLVQPGGSLRLSCAASGFAFRSYTMSWVRQAPGKGLEWVSTITHNGAITTYAESAQGRFTISRDNSKNTLYLQMNSLRPEDTAVYYCAQGGGSNYYRESWGQGTQVTVSS | Kd [8]: 193 nM; koff [8]: 0.0555 s⁻¹; kon [8]: 287000 M⁻¹ s⁻¹
7 |  |  |  |  | b12 (42p155z2) anti-5T4/CD40 bispecific antibody (bispecific antibody, human IgG1, kappa, N297A, also called 1+1 b12 format) heavy 1: EVQLQQSGPELVKPGASVKISCKASGYAFSSSWMNWVKQRPGKGLEWIGRIYREDGHTNYNGKFKGKATLTADKSSTTAYMQLTSLTSEDSAVYFCANGGAMDYWGQGTSVTVSSASTKGPSVFPLAPSSKSTSGGTAALGCLVKDYFPEPVTVSWNSGALTSGVHTFPAVLQSSGLYSLSSVVTVPSSSLGTQTYICNVNHKPSNTKVDKKVEPKSCDKTHTCPPCPAPELLGGPSVFLFPPKPKDTLMISRTPEVTCVVVDVSHEDPEVKFNWYVDGVEVHNAKTKPREEQYASTYRVVSVLTVLHQDWLNGKEYKCKVSNKALPAPIEKTISKAKGQPREPQVCTLPPSREEMTKNQVSLSCAVKGFYPSDIAVEWESNGQPENNYKTTPPVLDSDGSFFLVSKLTVDKSRWQQGNVFSCSVMHEALHNHYTQKSLSLSPGK light: DIQMTQSTSSLSASLGDRVTISCRASQDISNYLNWYQQKPDGTVKLLIYYTSRLHSGVPSRFSGSGSGTDYSLTISNLEQEDIATYFCQQDNTLPWTFGGGTKLEIKRTVAAPSVFIFPPSDEQLKSGTASVVCLLNNFYPREAKVQWKVDNALQSGNSQESVTEQDSKDSTYSLSSTLTLSKADYEKHKVYACEVTHQGLSSPVTKSFNRGEC heavy 2: not shown | binding result [9]: binds
8 |  |  |  |  | b17 (42p155z2) anti-5T4/CD40 bispecific antibody (bispecific antibody, human IgG1, kappa, N297A, also called 1+2 b17 format) heavy 1: EVQLQQSGPELVKPGASVKISCKASGYAFSSSWMNWVKQRPGKGLEWIGRIYREDGHTNYNGKFKGKATLTADKSSTTAYMQLTSLTSEDSAVYFCANGGAMDYWGQGTSVTVSSASTKGPSVFPLAPSSKSTSGGTAALGCLVKDYFPEPVTVSWNSGALTSGVHTFPAVLQSSGLYSLSSVVTVPSSSLGTQTYICNVNHKPSNTKVDKKVEPKSCDKTHTCPPCPAPELLGGPSVFLFPPKPKDTLMISRTPEVTCVVVDVSHEDPEVKFNWYVDGVEVHNAKTKPREEQYASTYRVVSVLTVLHQDWLNGKEYKCKVSNKALPAPIEKTISKAKGQPREPQVCTLPPSREEMTKNQVSLSCAVKGFYPSDIAVEWESNGQPENNYKTTPPVLDSDGSFFLVSKLTVDKSRWQQGNVFSCSVMHEALHNHYTQKSLSLSPGKGGGGSGGGGSGGGGSGGGGSEVQLVESGGGLVQPGGSLRLSCAASGFAFRSYTMSWVRQAPGKGLEWVSTITHNGAITTYAESAQGRFTISRDNSKNTLYLQMNSLRAEDTAVYYCAQGGGSNYYRESWGQGTQVTVSS light: DIQMTQSTSSLSASLGDRVTISCRASQDISNYLNWYQQKPDGTVKLLIYYTSRLHSGVPSRFSGSGSGTDYSLTISNLEQEDIATYFCQQDNTLPWTFGGGTKLEIKRTVAAPSVFIFPPSDEQLKSGTASVVCLLNNFYPREAKVQWKVDNALQSGNSQESVTEQDSKDSTYSLSSTLTLSKADYEKHKVYACEVTHQGLSSPVTKSFNRGEC heavy 2: not shown | binding result [9]: binds
